Source: IntAct's records for PubMed 20453860

B1: Vacuolar protein sorting-associated protein 33 (Saccharomyces cerevisiae), P20795 (parent)
chain: MNRFWNTKKFSLTNADGLCATLNEISQNDEVLVVQPSVLPVLNSLLTFQDLTQSTPVRKITLLDDQLSDDLPSALGSVPQMDLIFLIDVRTSLRLPPQLLDAAQKHNLSSLHIIYCRWKPSFQNTLEDTEQWQKDGFDLNSKKTHFPNVIESQLKELSNEYTLYPWDLLPFPQIDENVLLTHSLYNMENVNMYYPNLRSLQSATESILVDDMVNSLQSLIFETNSIITNVVSIGNLSKRCSHLLKKRIDEHQTENDLFIKGTLYGERTNCGLEMDLIILERNTDPITPLLTQLTYAGILDDLYEFNSGIKIKEKDMNFNYKEDKIWNDLKFLNFGSIGPQLNKLAKELQTQYDTRHKAESVHEIKEFVDSLGSLQQRQAFLKNHTTLSSDVLKVVETEEYGSFNKILELELEILMGNTLNNDIEDIILELQYQYEVDQKKILRLICLLSLCKNSLREKDYEYLRTFMIDSWGIEKCFQLESLAELGFFTSKTGKTDLHITTSKSTRLQKEYRYISQWFNTVPIEDEHAADKITNENDDFSEATFAYSGVVPLTMRLVQMLYDRSILFHNYSSQQPFILSREPRVSQTEDLIEQLYGDSHAIEESIWVPGTITKKINASIKSNNRRSIDGSNGTFHAAEDIALVVFLGGVTMGEIAIMKHLQKILGKKGINKRFIIIADGLINGTRIMNSIS
partner: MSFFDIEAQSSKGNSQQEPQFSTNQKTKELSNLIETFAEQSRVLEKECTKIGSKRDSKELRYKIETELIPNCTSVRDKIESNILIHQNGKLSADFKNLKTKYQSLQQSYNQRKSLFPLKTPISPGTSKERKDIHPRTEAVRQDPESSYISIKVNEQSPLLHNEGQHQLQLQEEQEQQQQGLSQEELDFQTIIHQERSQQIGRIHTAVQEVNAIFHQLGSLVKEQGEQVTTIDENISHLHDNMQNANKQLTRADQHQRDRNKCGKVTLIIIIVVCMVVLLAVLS

Variants of: B1
Conditions: with vam3_yeast VAM3, Q12241

| Variant | effect of a mutation on the interaction |
| --- | --- |
| D88K | decreasing interaction |
| L184P | decreasing interaction |
